Test results published in the RNAGym collection of RNA variant scans (doi:10.1073/pnas.2313332121).
Variants at the floor of the assay were thinned out.

B1: TPR 5TU (parent)
chain: GGAUCUUCUCGAUCUAACAAAAAAGACAAAUCUGCCACAAAGCUUGAGAGCAUCUUCGGAUGCAGAGGCGGCAGCCUUCGGUGGCGCGAUAGCGCCAACGUUCUCAACUAUGACACGCAAAACGCGUGCUCCGUUGAAUGGAGUUUAUCAUG

Variants of: B1
Test: polymerase ribozyme fitness, log enrichment relative to wild type (log ratio); higher = more active; in vitro selection for triplet polymerase activity
Procedure, shortened: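 Mutant libraries of both subunits of a heterodimeric triplet polymerase ribozyme were PCR-built, transcribed, and selected once in triplicate, with frozen incubation at −7 °C and capture of gel-excised extended constructs on streptavidin beads before RT-PCR. Illumina sequencing of input and output libraries was filtered to genotypes with ≥10 input reads and ≥1 read per output. Fitness is the logarithm of genotype enrichment over wild-type enrichment, using inverse-variance-weighted replicate averages. The logarithm is base 2.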

| Variant | polymerase ribozyme fitness (log ratio) |
| --- | --- |
| C14G A28G U53A C63U A89C A106U G126A G141A | ≤ -4.2 |
| U13A U55G C85U A121G | -1.11 |
| U13G A24C C35A A49U C76G A91C | ≤ -4.2 |
| C14A A29C C96G A150U | ≤ -4.2 |
| C14A C38G G81U G94U | -3.15 |
| U13C A21C A23C G92U A142G A147U | ≤ -4.2 |
| C14A G62C C76A C87A G117U A137C U146G | ≤ -4.2 |
| U13C U61G G84A A91G | -3.86 |
| C14G A91U A97G | -3.96 |
| C14A G83A C93G A107G | ≤ -4.2 |
| U13C C38U G86A G124C | -1.98 |
| U13G G83U C105U G117C U148A | ≤ -4.2 |
| U13C A26C A52C | -3.55 |
| C14A C35G G59C A64C A73G G141U | ≤ -4.2 |
| C14A U135A A142C | -3.9 |
| U13G C51G A91C | ≤ -4.2 |
| C14A G84A | -1.24 |
| C14A A26U A29G C57G C93A G141C | ≤ -4.2 |
| C14A U55A | -1.9 |
| C14G A28G C51U A52U G88A U109G | ≤ -4.2 |
| C14A C38U | -1.31 |
| C14G A26U A30U C75A C93U G141A U148G U151G | ≤ -4.2 |
| C14A A23C U56A C75G U77A C93U C95G U102C | ≤ -4.2 |
| C14A A23G A26U C43U C54U C57A C96G G143A | ≤ -4.2 |

| Variant | polymerase ribozyme fitness (log ratio) |
| --- | --- |
| C14G A19U G34U C87G G100A A142C | ≤ -4.2 |
| C14G A40U A73G U104C | ≤ -4.2 |
| U13G C18G U45A G59U U104G U134C G140U U144A | ≤ -4.2 |
| U13C A19G U45G C93A A106U | -2.34 |
| U13A C57U A73C C96G | ≤ -4.2 |
| C14G A16G A22C A60U C87U C93U A121C | ≤ -4.2 |
| U13C U44A U56A C79U C93G C95U A115C G141U | ≤ -4.2 |
| U13C G58U G94U C95U A142G U144G | -4.05 |
| C14A U90G A137C | ≤ -4.2 |
| C14G A39U G58A U61G C85U C95U A107C G141C U146C | ≤ -4.2 |
| C14A C63U G71A C85G G100U | ≤ -4.2 |
| U13G U31C C96A | -0.864 |
| U13G A47G U55A C87U C96U U139G | ≤ -4.2 |
| U13A C38U G83C G140A | ≤ -4.2 |
| C14G A40C U55A G81C G126A U139G G140A | ≤ -4.2 |
| C14A A16C A28G A60G C79G A91G U109A | ≤ -4.2 |
| C14A G83A | -0.809 |
| C14A G80A C85U C103G G117U G124U A142G | ≤ -4.2 |
| U13G A47C G88C A91U C105U | ≤ -4.2 |
| C14G A40U C43U G46A G50C C85U G112A | ≤ -4.2 |
| U13G C14G U31A A41C G86A U90G G100A C131A | ≤ -4.2 |
| U13A G48U U56A G84A | -1.28 |
| U13A C32G A37U A52G G94A G128A U146G | ≤ -4.2 |
| U13C A91U A120U | -3.86 |

| Variant | polymerase ribozyme fitness (log ratio) |
| --- | --- |
| C14G A26U G59C G86C G100A G136U U144A | ≤ -4.2 |
| C14A C95U | -1.38 |
| C14G A22C A52U C96A A97U G117U | ≤ -4.2 |
| U13G A20U C57A C95A C96A U130C | ≤ -4.2 |
| U13G A26U C32G U33A C54G A66U C118A U144A | ≤ -4.2 |
| C14A G58A A89U G94U | -3.75 |
| U13C C14U C54A G92A | ≤ -4.2 |
| C14G A30U U61A G92A C99A | ≤ -4.2 |
| C14G A52G C75U C85U U144C | -3.71 |
| U13C C51A G83C A89G C125U | ≤ -4.2 |
| C14A U15C A19C A20C U45C G86U | -4.11 |
| C14G A28U U55G A89U C96A G126A G128C G140C | ≤ -4.2 |
| C14G A19G G46A C72G G84U | ≤ -4.2 |
| U13A G84A G136U | -2.59 |
| U13G A29U C93U C129G | ≤ -4.2 |
| U13A C105A A107C U134A | ≤ -4.2 |
| U13G C54G | -3.62 |
| U13C C35G C36G U55G G86U | -4.16 |
| U13G C57A | -0.243 |
| C14G A20U G50A U56A G65U C93A C131A | ≤ -4.2 |
| U13C A120G U130A | -3.95 |
| C14G A26G G58U C72U A122G | ≤ -4.2 |
| U13G G94C C114G G143A | ≤ -4.2 |
| C14A A19U U56G G86U C116G C125U G133A G143C | ≤ -4.2 |

| Variant | polymerase ribozyme fitness (log ratio) |
| --- | --- |
| U13G A19U A49U C54G A89G C93U U127C | ≤ -4.2 |
| U13G A26U C96G A120G | ≤ -4.2 |
| U13G C75A C108G G143A | ≤ -4.2 |
| U13G U56A G86U C131U | -4.16 |
| U13C C18A A40C U53A G83A | -2.56 |
| U13C A16U | -0.079 |
| C14A A52G C85U A113C | -4.15 |
| U13A C85U A107U C125A G126C | ≤ -4.2 |
| C14A A40C G92C G143A | ≤ -4.2 |
| U13C C14U U77G G84U U145G U148A | ≤ -4.2 |
| U13A C57G C96A | -1.81 |
| C14A U31A U55A G92A C125U A142U | ≤ -4.2 |
| U13G G46C C54U G92U | -3.24 |
| U13G A21U A22C U82G G92U A98C C116U | -1.59 |
| C14G A19C | -1.66 |
| U13C C93G C99A U127C | ≤ -4.2 |
| C14A A39C G70A U130G | ≤ -4.2 |
| C14G A29C U53A C95U C114U G140A | -3.68 |
| U13G A16U C85U U145G | -3.16 |
| U13G A21C G48U | -1.33 |
| U13G G80C G94U U134A | ≤ -4.2 |
| U13A C93A | -3.28 |
| U13C A16G A19C A28U C38U U55G A73C U77C C95G | ≤ -4.2 |
| U13A C85U U135A | -1.44 |

| Variant | polymerase ribozyme fitness (log ratio) |
| --- | --- |
| C14A A37U A52G G83A G84A A115U | ≤ -4.2 |
| U13C A16G C18A C35A C87U | ≤ -4.2 |
| C14A G58A G68A U78A G94A | ≤ -4.2 |
| U13G A49U | -2.21 |
| C14G A21C C54A G67A G94U C123U | ≤ -4.2 |
| C14A C35U C57U G59C U134A | -4.18 |
| U13C A20C G50C | -3.15 |
| C14A A16U A49G G50A C57A A60G C95G U101C A110G | ≤ -4.2 |
| C14G A22C A39C A52G C75G U82G G140U | ≤ -4.2 |
| U13G G68C G84A | ≤ -4.2 |
| C14G A39U U55G C95U | ≤ -4.2 |
| C14A C36U U45C C87U C105A G133U | ≤ -4.2 |
| C14G A22U A26G A28C U134A | ≤ -4.2 |
| U13G A41C C96U A107U C131A G133A U146C | ≤ -4.2 |
| U13G A122C A142C | -2.05 |
| C14A A16U A19U A52G G68A C85G U151G | ≤ -4.2 |
| C14G A37C | -3.05 |
| C14A G80C G86U C118U | ≤ -4.2 |
| U13G G84A G143U | -3.44 |
| C14A U102G | ≤ -4.2 |
| U13A U55A A89C G128U | -3.92 |
| U13G G58C G62U U82A G86U U127C U146G | ≤ -4.2 |
| U13A G58A C87U C105A C108U G124A U145A | ≤ -4.2 |
| U13C G94A | -0.431 |

| Variant | polymerase ribozyme fitness (log ratio) |
| --- | --- |
| U13C G94C | -0.0586 |
| U13G C38A C93G C116G A122G | ≤ -4.2 |
| U13C U53G C87A A120U A142U U146A | ≤ -4.2 |
| U13C G58A G88U U90A U102G | ≤ -4.2 |
| C14G A19U C87G U145A | ≤ -4.2 |
| C14G A28G U31A C32U G34A G42C U55G G94U | ≤ -4.2 |
| U13A G34U G94A U102G | ≤ -4.2 |
| C14A A19G G48U A66C A73G G84U U135A U151G | ≤ -4.2 |
| C14G A30U A41C C43U G50C U55G C75G C118U A119C | ≤ -4.2 |
| U13A C38U | -0.321 |
| C14G A73G G88C A98U C99G | ≤ -4.2 |
| C14A A19G A26U C79A G83U A119C | ≤ -4.2 |
| U13C U45G G81A C85U C118U G126A | ≤ -4.2 |
| C14G A17G C32U G81A G83C | ≤ -4.2 |
| C14A A16C G46A G67C C85A C95A | ≤ -4.2 |
| C14A U44G | -4.1 |
| C14G A24C A60G G62A G65C C87U U145G | ≤ -4.2 |
| C14A A16C A19U U82A G83U C149U | -3.89 |
| C14A C27G C32G U77C G84A | ≤ -4.2 |
| U13G G58A C95U C96G | -4.19 |
| C14G A49G | -2.92 |
| U13A C32U G67C C85A C105U G140A | ≤ -4.2 |
| C14G A23G A73G G84U A122U | ≤ -4.2 |
| U13C A21C | 0.934 |

| Variant | polymerase ribozyme fitness (log ratio) |
| --- | --- |
| U13G C14G U31G | -1.43 |
| C14A A29U C96A U101G G133C U144C | ≤ -4.2 |
| U13G G48C G81A C96A | ≤ -4.2 |
| C14G A23C C32U C96U | -4.1 |
| C14A G62A C85A G141A | -3.57 |
| U13A C38U A60C G83C | ≤ -4.2 |
| U13G A21U C32G A73U U78A C87A C118A | ≤ -4.2 |
| C14A C27G A91C A115G | ≤ -4.2 |
| U13C A19C A89U C95U U146G A150U | -2.94 |
| U13A U61A C85U | -2.01 |
| C14A A17U A24C C57U G58C C87A | ≤ -4.2 |
| U13C C69A C87G A97U A147U | ≤ -4.2 |
| C14A G59A G84A A106G C125G U148C C149U | ≤ -4.2 |
| U13G C85U C99U G128C C132U | ≤ -4.2 |
| U13A G46U G59A A91G C95U G117A | ≤ -4.2 |
| U13G A17U A21G A22G G50C G59A G70C C72U C125G | ≤ -4.2 |
| C14A A16G | -0.651 |
| C14A A39U A73G C95G | ≤ -4.2 |
| U13A G50A U55A A89C | -3.57 |
| C14A A17C A41C C96U A115U G141A | ≤ -4.2 |
| C14G A21U A30U U31C | ≤ -4.2 |
| U13G G83C C99G C118G C123U A137G | ≤ -4.2 |
| C14A A21U G59U G133C | -3.06 |
